Literature values as cited in publication PMC7417478.

How the values were obtained:
FGFR1 (Homo sapiens) = FGFR1 (Homo sapiens) (UniProt P11362)
FGFR2 (Homo sapiens) = FGFR2 (Homo sapiens) (UniProt P21802)
Chain of UniProt P21802 (P21802 22-377): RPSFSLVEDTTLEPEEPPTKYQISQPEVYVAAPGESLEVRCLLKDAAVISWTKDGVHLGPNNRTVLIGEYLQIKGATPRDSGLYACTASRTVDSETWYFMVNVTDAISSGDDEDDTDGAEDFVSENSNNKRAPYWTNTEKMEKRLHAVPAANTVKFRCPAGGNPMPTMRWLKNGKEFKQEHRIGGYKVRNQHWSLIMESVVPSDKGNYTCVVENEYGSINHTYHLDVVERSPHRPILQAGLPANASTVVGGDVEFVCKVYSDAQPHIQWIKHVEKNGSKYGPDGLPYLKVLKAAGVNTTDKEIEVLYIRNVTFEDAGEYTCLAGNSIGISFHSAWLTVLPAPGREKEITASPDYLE

Chain of UniProt P11362 (P11362 22-376): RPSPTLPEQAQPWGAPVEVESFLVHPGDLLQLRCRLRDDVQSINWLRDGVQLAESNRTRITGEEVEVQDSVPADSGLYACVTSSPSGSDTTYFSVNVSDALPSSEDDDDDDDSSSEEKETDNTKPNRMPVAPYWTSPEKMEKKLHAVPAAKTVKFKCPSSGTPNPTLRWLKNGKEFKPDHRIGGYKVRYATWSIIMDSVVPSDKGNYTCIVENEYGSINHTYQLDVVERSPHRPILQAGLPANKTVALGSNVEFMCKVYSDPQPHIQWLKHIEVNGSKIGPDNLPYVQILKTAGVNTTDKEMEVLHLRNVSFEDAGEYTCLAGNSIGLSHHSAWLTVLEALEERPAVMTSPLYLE

Substance: FGF5 (from UniProt P12034)
- Kd (FGFR1 (Homo sapiens)): 1 nM
- Kd (FGFR2 (Homo sapiens)): 1 nM
